Experimental data as given in patent US10253076B2, “Peptides and combination of peptides for use in immunotherapy against ovarian cancer and other cancers” (immatics biotechnologies GmbH, priority 2015, dated 2019).

These substances were tested against HLA-A*02:01 (Homo sapiens, UniProt P04439, D140Y/D185E/D98H/E176V/E277Q/G131W/G231S/I119V/I121R/I166T/I218V/L300P/L318F/N151K/N90K/P208A/P217A/Q86G/Q94H/R138H/R169H/T345S) (assay: MHC binding assay (UV-ligand exchange, beta2m ELISA, peptide exchange yield)). Settings: binding of HLA-class I restricted peptides to HLA-A*02:01, ranged by peptide exchange yield (UV-ligand exchange, β2m ELISA).
In short: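 Peptide–HLA-A*02:01 complexes made by UV-mediated exchange of a photocleavable peptide with the test peptide. Exchange products diluted 100-fold on streptavidin-coated plates, 1 h at 37°C, then HRP anti-β2m 1 h at 37°C; TMB read at 450 nm to give exchange yield.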

Substance | Peptide exchange
458 (SLIDKLYNI; listed as Homo sapiens) [compound 458] | ″++″ (≥20% = ++)
430 (HLYSSIEHLTT; listed as Homo sapiens) [compound 430] | ″+++″ (≥50% = +++)
512 (SLSEIVPCL; listed as Homo sapiens) [compound 512] | ″+++″ (≥50% = +++)
249 (LLDGFLVNV; listed as Homo sapiens) [compound 249] | ″+++″ (≥50% = +++)
372 (TMLLNIPLV; listed as Homo sapiens) [compound 372] | ″++″ (≥20% = ++)
73 (NIFDLQIYV; listed as Homo sapiens) [compound 73] | ″+++″ (≥50% = +++)
564 (TVTNAVVTV; listed as Homo sapiens) [compound 564] | ″+++″ (≥50% = +++)
472 (KLLEVSDDPQV; listed as Homo sapiens) [compound 472] | ″+++″ (≥50% = +++)
494 (ALQPEPIKV; listed as Homo sapiens) [compound 494] | ″++″ (≥20% = ++)
237 (ALLEASGTLLL; listed as Homo sapiens) [compound 237] | ″++++″ (≥75% = ++++)
493 (GLLGEKTQDLIGV; listed as Homo sapiens) [compound 493] | ″+++″ (≥50% = +++)
26 (ALLELAEEL; listed as Homo sapiens) [compound 26] | ″+++″ (≥50% = +++)
160 (FLFDEEIEQI; listed as Homo sapiens) [compound 160] | ″+++″ (≥50% = +++)
121 (GVVDPRAISVL; listed as Homo sapiens) [compound 121] | ″++″ (≥20% = ++)
33 (VLLSLLEKV; listed as Homo sapiens) [compound 33] | ″++″ (≥20% = ++)
140 (YMDAPKAAL; listed as Homo sapiens) [compound 140] | ″++″ (≥20% = ++)
305 (SIANFSEFYV; listed as Homo sapiens) [compound 305] | ″++++″ (≥75% = ++++)
585 (ALWDLAADKQTL; listed as Homo sapiens) [compound 585] | ″++++″ (≥75% = ++++)
501 (LLDPNVKSIFV; listed as Homo sapiens) [compound 501] | ″+++″ (≥50% = +++)
250 (ALSEEGLLVYL; listed as Homo sapiens) [compound 250] | ″+++″ (≥50% = +++)
304 (MTLGQIYYL; listed as Homo sapiens) [compound 304] | ″+++″ (≥50% = +++)
296 (FMEGAIIYV; listed as Homo sapiens) [compound 296] | ″+++″ (≥50% = +++)
216 (NLWEDPYYL; listed as Homo sapiens) [compound 216] | ″+++″ (≥50% = +++)
100 (YLLSTNAQL; listed as Homo sapiens) [compound 100] | ″++++″ (≥75% = ++++)
595 (VLLSIYPRV; listed as Homo sapiens) [compound 595] | ″+++″ (≥50% = +++)

The remaining lines, values ahead:

Peptide exchange | Substance
″+++″ (≥50% = +++) | 187 (RQISIRGIVGV; listed as Homo sapiens) [compound 187]
″+++″ (≥50% = +++) | 519 (GLLHLTLLL; listed as Homo sapiens) [compound 519]
″++″ (≥20% = ++) | 212 (ALWDQDNLSV; listed as Homo sapiens) [compound 212]
″+++″ (≥50% = +++) | 215 (QLINHLHAV; listed as Homo sapiens) [compound 215]
″+++″ (≥50% = +++) | 284 (ILLSQTTGV; listed as Homo sapiens) [compound 284]
″+++″ (≥50% = +++) | 478 (YLLHEKLNL; listed as Homo sapiens) [compound 478]
″+++″ (≥50% = +++) | 71 (GILARIASV; listed as Homo sapiens) [compound 71]
″+++″ (≥50% = +++) | 474 (YLDPALELGPRNV; listed as Homo sapiens) [compound 474]
″+++″ (≥50% = +++) | 394 (LLAVIGGLVYL; listed as Homo sapiens) [compound 394]
″+++″ (≥50% = +++) | 83 (ILAPTVMMI; listed as Homo sapiens) [compound 83]
″++″ (≥20% = ++) | 428 (KLGHTDILVGV; listed as Homo sapiens) [compound 428]
″+++″ (≥50% = +++) | 243 (LLLNELPSV; listed as Homo sapiens) [compound 243]
″+++″ (≥50% = +++) | 111 (YVWGFYPAEV; listed as Homo sapiens) [compound 111]
″+++″ (≥50% = +++) | 547 (TLDITPHTV; listed as Homo sapiens) [compound 547]
″++++″ (≥75% = ++++) | 19 (FMVDNEAIYDI; listed as Homo sapiens) [compound 19]
″+++″ (≥50% = +++) | 619 (ALQDRVPLA; listed as Homo sapiens) [compound 619]
″++++″ (≥75% = ++++) | 339 (GLWEIENNPTVKA; listed as Homo sapiens) [compound 339]

Peptide exchange | Substance
″++++″ (≥75% = ++++) | 438 (KLLPLAGLYL; listed as Homo sapiens) [compound 438]
″+++″ (≥50% = +++) | 192 (KMLDGASFTL; listed as Homo sapiens) [compound 192]
″+++″ (≥50% = +++) | 5 (HLTEVYPEL; listed as Homo sapiens) [compound 5]
″+++″ (≥50% = +++) | 76 (ILIDSIYKV; listed as Homo sapiens) [compound 76]
″+++″ (≥50% = +++) | 635 (SLDSTLHAV; listed as Homo sapiens) [compound 635]
″+++″ (≥50% = +++) | 541 (SMLEPVPEL; listed as Homo sapiens) [compound 541]
″++″ (≥20% = ++) | 84 (VTFGEKLLGV; listed as Homo sapiens) [compound 84]
″+++″ (≥50% = +++) | 444 (GLLRDEALAEV; listed as Homo sapiens) [compound 444]
″+++″ (≥50% = +++) | 181 (LLWAGTAFQV; listed as Homo sapiens) [compound 181]
″+++″ (≥50% = +++) | 537 (TLAPGEVLRSV; listed as Homo sapiens) [compound 537]
″++″ (≥20% = ++) | 274 (SLLFSLFEA; listed as Homo sapiens) [compound 274]
″++″ (≥20% = ++) | 227 (ALMNTLLYL; listed as Homo sapiens) [compound 227]
″++″ (≥20% = ++) | 590 (SLIEKLWQT; listed as Homo sapiens) [compound 590]
″++″ (≥20% = ++) | 434 (KVSNSGITRV; listed as Homo sapiens) [compound 434]
″+++″ (≥50% = +++) | 214 (FLLDLDPLLL; listed as Homo sapiens) [compound 214]
″+++″ (≥50% = +++) | 506 (KLLGKVETA; listed as Homo sapiens) [compound 506]
